We go through one substance from patent US20210054097A1.

Experiment [1] has as its target human activated Factor X (human) (UniProt P00742). In words: cell-based or functional assay.
In experiment [2] the target is human plasma-derived Factor X zymogen (human) (UniProt P00742). In words: cell-based or functional assay.
Experiment [3] has the same target. Briefly: apparent KD fitted from FXa generation assay.

Chain of human plasma-derived Factor X zymogen (human) (P00742 41-179, chain 1 of 2): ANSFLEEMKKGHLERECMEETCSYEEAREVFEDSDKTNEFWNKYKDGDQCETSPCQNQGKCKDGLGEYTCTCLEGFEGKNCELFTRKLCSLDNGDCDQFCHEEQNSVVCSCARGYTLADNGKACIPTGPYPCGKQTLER
Chain of human plasma-derived Factor X zymogen (human) (P00742 183-488, chain 2 of 2): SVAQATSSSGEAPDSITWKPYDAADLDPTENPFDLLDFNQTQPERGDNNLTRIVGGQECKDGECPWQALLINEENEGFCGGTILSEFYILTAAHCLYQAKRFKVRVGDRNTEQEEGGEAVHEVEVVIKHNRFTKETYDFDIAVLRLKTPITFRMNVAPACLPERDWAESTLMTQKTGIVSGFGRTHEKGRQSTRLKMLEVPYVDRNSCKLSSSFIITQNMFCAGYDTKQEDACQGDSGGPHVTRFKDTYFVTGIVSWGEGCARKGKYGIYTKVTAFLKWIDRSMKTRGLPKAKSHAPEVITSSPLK
Chain of human activated Factor X (human) (P00742 41-179, chain 1 of 2): as the sequence (P00742 41-179, chain 1 of 2) above
Chain of human activated Factor X (human) (P00742 235-488, chain 2 of 2): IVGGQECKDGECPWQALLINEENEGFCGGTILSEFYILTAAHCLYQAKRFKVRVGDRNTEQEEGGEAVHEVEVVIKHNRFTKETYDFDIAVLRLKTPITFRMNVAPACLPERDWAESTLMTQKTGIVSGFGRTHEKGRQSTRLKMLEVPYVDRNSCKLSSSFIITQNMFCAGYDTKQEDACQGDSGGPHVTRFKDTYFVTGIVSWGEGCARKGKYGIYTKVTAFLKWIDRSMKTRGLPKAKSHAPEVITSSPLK

In experiment [1], Fab ACE910 anti-FX (J327/L404-k) showed an FXa amidolytic activity (relative to free FXa, fold) of 1.02 fold. In addition, the Increase in FX activation (fold) in experiment [2] was less than 0.6 fold. Besides, in experiment [3], the Kd was 3.9 µM.
